Results as given in patent US20210023177A1.

Tests used:
[1] = molecular target: human Claudin 18 splice variant 2 (CLDN18.2) (human); assay: cell-based or functional assay
[2] = molecular target: human Claudin 18 splice variant 2 (CLDN18.2) (human)

ADCC EC50 (ng/ml), BxPC3 LVT cells [1]: 47.7 ng/mL
ADCC EC50 (ng/ml), CAPAN1-LVT cells [1]: 65 ng/mL
ADCC EC50 (ng/ml), DANG cells [1]: 4980 ng/mL
ADCC EC50 (ng/ml), DANG-LVT cells [1]: 52.3 ng/mL
ADCC EC50 (ng/ml), HPAC-LVT cells [1]: 117 ng/mL
ADCC EC50 (ng/ml), MiaPaCa2-LVT cells [1]: 23.4 ng/mL
ADCC EC50 (ng/ml), Panc05.04 cells [1]: 5730 ng/mL
ADCC EC50 (ng/ml), Patu8902-LVT cells [1]: 49.2 ng/mL
ADCC EC50 (ng/ml), Suit2-LVT cells [1]: 73.2 ng/mL
ADCC EC50 (ng/ml), YAPC-LVT cells [1]: 29.5 ng/mL
ADCC Max. lysis (%), BxPC3 LVT cells, human PBMC E:T 40:1 [1]: 90.6%
ADCC Max. lysis (%), CAPAN1-LVT cells [1]: 92.6%
ADCC Max. lysis (%), DANG cells [1]: 52.5%
ADCC Max. lysis (%), DANG-LVT cells [1]: 85.9%
ADCC Max. lysis (%), HPAC-LVT cells [1]: 76.2%
ADCC Max. lysis (%), MiaPaCa2-LVT cells [1]: 78.1%
ADCC Max. lysis (%), Panc05.04 cells [1]: 67.1%
ADCC Max. lysis (%), Patu8902-LVT cells [1]: 74.1%
ADCC Max. lysis (%), Suit2-LVT cells [1]: 81.2%
ADCC Max. lysis (%), YAPC-LVT cells [1]: 91.5%
CDC EC50 (ng/ml), CAPAN1-LVT cells [1]: 970 ng/mL
CDC EC50 (ng/ml), MiaPaCa2-LVT cells [1]: 340 ng/mL
CDC EC50 (ng/ml), Patu8902-LVT cells [1]: 291 ng/mL
CDC EC50, gemcitabine pretreated MiaPaCa-2-LVT cells [1]: 4.68 µg/mL
CDC EC50, medium cultivated MiaPaCa-2-LVT cells [1]: 7.67 µg/mL
CDC Max. lysis (%), CAPAN1-LVT cells [1]: 79.1%
CDC Max. lysis (%), MiaPaCa2-LVT cells [1]: 78.4%
CDC Max. lysis (%), Patu8902-LVT cells [1]: 76.7%
CLDN18 surface expression (FACS), % of cells stained [2]: 81.7%
B1: IMAB362 (antibody, INN chains, looked up, V domains shown)
VH: QVQLQQPGAELVRPGASVKLSCKASGYTFTSYWINWVKQRPGQGLEWIGNIYPSDSYTNYNQKFKDKATLTVDKSSSTAYMQLSSPTSEDSAVYYCTRSWRGNSFDYWGQGTTLTVSS
VL: DIVMTQSPSSLTVTAGEKVTMSCKSSQSLLNSGNQKNYLTWYQQKPGQPPKLLIYWASTRESGVPDRFTGSGSGTDFTLTISSVQAEDLAVYYCQNDYSYPFTFGSGTKLEIKR
